According to paper PMC2816707:

Experiments:
humanized EBV321 = test: ELISA; details: point at the highest antibody concentration, about 13.3 nM (read from x axis); VEGF captured on ELISA plate; parent: est. 0.66; read off a plot
Bevacizumab = test: ELISA; details: point at the highest antibody concentration, about 13.3 nM (read from x axis); VEGF captured on ELISA plate; parent: est. 0.86; read off a plot
[1] = molecular target: Recombinant human VEGF165 (human) (UniProt P15692); test: ELISA; inhibition of VEGF/VEGFR-2 interaction
Chain of Recombinant human VEGF165 (human) (P15692 other isoform, or with tags, fused parts or gaps): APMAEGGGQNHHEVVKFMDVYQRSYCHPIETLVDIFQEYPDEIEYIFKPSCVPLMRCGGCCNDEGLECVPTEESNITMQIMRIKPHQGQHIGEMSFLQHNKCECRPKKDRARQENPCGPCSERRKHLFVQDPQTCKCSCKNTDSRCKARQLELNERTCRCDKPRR

Chain of rabbit IgG Fc-hVEGF (human VEGF165) fusion protein, wild type (from UniProt P15692-4) G88A; Q89A (P15692 whole entry, looked up, stated change not applied, the tested form may be a part): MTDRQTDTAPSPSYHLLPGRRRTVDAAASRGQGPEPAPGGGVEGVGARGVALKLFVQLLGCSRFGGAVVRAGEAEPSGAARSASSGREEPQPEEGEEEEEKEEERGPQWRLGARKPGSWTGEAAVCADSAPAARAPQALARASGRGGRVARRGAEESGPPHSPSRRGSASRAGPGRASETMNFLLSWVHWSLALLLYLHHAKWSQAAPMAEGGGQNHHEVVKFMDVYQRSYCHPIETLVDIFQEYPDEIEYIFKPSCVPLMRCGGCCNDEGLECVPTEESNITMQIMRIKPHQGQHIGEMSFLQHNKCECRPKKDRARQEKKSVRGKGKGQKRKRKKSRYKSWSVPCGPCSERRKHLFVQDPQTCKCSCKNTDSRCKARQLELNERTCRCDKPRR
Chain of rabbit IgG Fc-hVEGF (human VEGF165) fusion protein, wild type (from UniProt P15692-4) I46A (P15692 whole entry, looked up, stated change not applied, the tested form may be a part): as above
Chain of rabbit IgG Fc-hVEGF (human VEGF165) fusion protein, wild type (from UniProt P15692-4) G88A (P15692 whole entry, looked up, stated change not applied, the tested form may be a part): as above

Row | response (humanized EBV321) | response (Bevacizumab) | IC50 [1] [nM] | Substance
1 | 0.76 OD (405nm) | 0.13 OD (405nm) | – | rabbit IgG Fc-hVEGF (human VEGF165) fusion protein, wild type (from UniProt P15692-4) G88A; Q89A
2 | – | 0.57 OD (405nm) | – | rabbit IgG Fc-hVEGF (human VEGF165) fusion protein, wild type (from UniProt P15692-4) G88A
3 | – | – | 0.893 | Bevacizumab
4 | – | 0.88 OD (405nm) | – | rabbit IgG Fc-hVEGF (human VEGF165) fusion protein, wild type (from UniProt P15692-4) I46A
